Entries after “also recorded” stand apart in the source; their conditions may differ. Each block holds one compound with its values, some of them ahead of it.
Columns and labels:
[1] = target: T1, atrial inward rectifier K+ (KG) channel (Rattus norvegicus, UniProt P48548+P63251); experiment: Two-electrode voltage clamp of the transmitter-evoked inward current (I5HT) in oocytes injected with atrial RNA + 5HT1A-R RNA; format: cell-based
T1 construct: is expressed in oocytes injected with atrial RNA; expressed in transfected cells; host or cells: Xenopus laevis oocytes injected with rat atrial total or poly(A) RNA plus 5HT1A receptor cRNA
T1 sequence (P63251 1-501): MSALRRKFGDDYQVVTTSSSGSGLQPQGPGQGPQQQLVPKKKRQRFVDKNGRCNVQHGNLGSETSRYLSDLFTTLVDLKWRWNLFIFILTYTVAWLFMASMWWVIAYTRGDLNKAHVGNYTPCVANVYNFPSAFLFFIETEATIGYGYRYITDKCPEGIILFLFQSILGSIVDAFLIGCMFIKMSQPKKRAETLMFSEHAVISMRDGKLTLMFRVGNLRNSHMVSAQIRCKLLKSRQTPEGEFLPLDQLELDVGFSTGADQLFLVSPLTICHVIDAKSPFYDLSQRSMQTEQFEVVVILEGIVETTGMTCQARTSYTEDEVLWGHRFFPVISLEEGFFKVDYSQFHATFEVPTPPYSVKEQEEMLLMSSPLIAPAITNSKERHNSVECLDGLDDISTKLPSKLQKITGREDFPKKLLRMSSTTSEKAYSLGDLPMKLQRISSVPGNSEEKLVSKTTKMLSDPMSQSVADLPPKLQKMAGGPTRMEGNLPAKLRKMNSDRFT
T1 sequence (P48548 1-419): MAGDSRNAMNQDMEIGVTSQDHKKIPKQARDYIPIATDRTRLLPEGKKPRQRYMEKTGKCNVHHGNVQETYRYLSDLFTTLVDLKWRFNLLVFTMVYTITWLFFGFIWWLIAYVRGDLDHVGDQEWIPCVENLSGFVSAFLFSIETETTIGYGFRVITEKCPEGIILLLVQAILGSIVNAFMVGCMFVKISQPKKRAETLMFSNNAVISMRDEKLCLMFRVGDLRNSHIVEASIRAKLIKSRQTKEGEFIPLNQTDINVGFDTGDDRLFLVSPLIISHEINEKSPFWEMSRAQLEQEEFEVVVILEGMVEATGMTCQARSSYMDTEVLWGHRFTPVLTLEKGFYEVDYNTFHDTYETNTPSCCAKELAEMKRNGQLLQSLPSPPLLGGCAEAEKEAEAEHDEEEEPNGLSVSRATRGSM

Xenopus laevis oocytes = experiment: Membrane (resting) current of oocytes in normal ND96 solution, two-electrode voltage clamp; format: cell-based
Procedure: Preparation of RNA and oocytes. Total RNA was extracted from atria and ventricles of 19–21 day old rats of both sexes using the procedure of Chomczinski and Sacchi (1987) Anal. Biochem. 162:156–159. Poly (A) RNA was separated on an oligo-dT cellulose column (type 3, Collaborative Biochemical Products). Ventricle poly(A) RNA was fractionated by centrifugation (18 h, 30,000 g, 4° C.) on a linear 5%–25% sucrose gradient. Xenopus laevis oocytes were prepared as previously described (Dascal & Lotan (1992) in Methods in Molecular Biology, v. 13: Protocols in Molecular Neurobiology, eds. Longstaff & Revest). and injected with either 50–120 ng/oocyte poly(A) RNA, 120–200 ng/oocyte total RNA, or 35 ng/oocyte fractionated poly(A) RNA. In most cases, 5HT1A-R RNA (5–20 ng/oocyte) was co-injected with atrial or ventricle RNA. Final volume of the injected RNA solution was 50 nl. The oocytes were incubated for 3–7 days in the NDE solution (ND96 (see below) containing 1.8 Mm CaCl2 and supplemented with 2.5 Mm Na-pyruvate and 50 μg/ml gentamicin). Occasionally, either 2.5–5% heat-inactivated horse serum or 0.5 mM theophylline were added to the NDE solution. […]

Kir3.1 = experiment: ACh-induced inward current (m2R activation) in oocytes injected with Kir3.1 cRNA; format: cell-based, rat; details: 1 μM ACh, 1 ng cRNA, n=5
Description: (§1) Plasmids and DNAS. To isolate Kir3.2 and Kir3.3 from mouse brain RNA, oligonucleotides were designed that anneal to the first assigned methionine codon and the assigned stop codon of mouse Kir3.2 and Kir3.3 (Lesage et al (1994) FEBS Lett. 353:37–42). Kir3.0-specific sequences were coupled to a 5′-end untranslated sequence from alfalfa mosaic virus (Jobling and Gehrke (1987) Nature 325:622–625) and a T7 RNA polymerase recognition site to confer an optimal translational initiation site and allow RNA synthesis […] (cRNA). At the 3′ end, a poly(A) tail was added to confer RNA stability. Total RNA from adult mouse brain (purchased from Clontech) was used as template for cDNA synthesis (Sambrook et al., supra.). PCR was conducted in a thermal cycler (Perkin-Elmer) by using Vent Polymerase (New England Biolabs), which minimizes misincorporations during the amplification step. Kir3.2 and Kir3.3 PCR-derived sequences were then inserted into the pNoTA vector (5 Prime→3 Primer, Inc.) for subsequent sequence analysis. […]
(§2) Electrophysiology. Whole-cell currents from oocytes were measured by using an Axoclamp 2A or Geneclamp 500 amplifier (Axon Instruments, Foster City, Calif.) in the two-electrode, voltage-clamp configuration. […]

Kir3.1+2 = experiment: ACh-induced inward current (m2R activation) in oocytes coinjected with Kir3.1 and Kir3.2 cRNAs; format: cell-based, rat Kir3.1, mouse Kir3.2; details: 1 μM ACh, 0.5 ng each cRNA per oocyte, mean±SEM, n=5
Description: as §1, §2

Kir3.2 = experiment: ACh-induced inward current (m2R activation) in oocytes injected with Kir3.2 cRNA; format: cell-based, mouse; details: 1 μM ACh, 1 ng cRNA, n=7
Description: as §1, §2

[2] = system: constitutively active inward rectifier K+ channel(s) (IhK); experiment: Two-electrode voltage clamp of the high-K+-evoked inward current (IhK) in oocytes; format: cell-based, Xenopus laevis
Procedure: Preparation of RNA and oocytes. Total RNA was extracted from atria and ventricles of 19–21 day old rats of both sexes using the procedure of Chomczinski and Sacchi (1987) Anal. Biochem. 162:156–159. Poly (A) RNA was separated on an oligo-dT cellulose column (type 3, Collaborative Biochemical Products). Ventricle poly(A) RNA was fractionated by centrifugation (18 h, 30,000 g, 4° C.) on a linear 5%–25% sucrose gradient. Xenopus laevis oocytes were prepared as previously described (Dascal & Lotan (1992) in Methods in Molecular Biology, v. 13: Protocols in Molecular Neurobiology, eds. Longstaff & Revest). and injected with either 50–120 ng/oocyte poly(A) RNA, 120–200 ng/oocyte total RNA, or 35 ng/oocyte fractionated poly(A) RNA. In most cases, 5HT1A-R RNA (5–20 ng/oocyte) was co-injected with atrial or ventricle RNA. Final volume of the injected RNA solution was 50 nl. The oocytes were incubated for 3–7 days in the NDE solution (ND96 (see below) containing 1.8 Mm CaCl2 and supplemented with 2.5 Mm Na-pyruvate and 50 μg/ml gentamicin). Occasionally, either 2.5–5% heat-inactivated horse serum or 0.5 mM theophylline were added to the NDE solution. Incubation of oocytes in pertussis toxin (PTX; List Biochemicals) was done in NDE solution without the addition of pyruvate, serum or theophylline. cDNAs of 5HT1A receptor (Karschin et al. (1991) P.N.A.S. 88:5694–5698) and Gi2a (a gift from M. I. Simon, Caltech) in pBluescript were linearized, and RNA was synthesized in vitro as described (Dascal and Lotan, supra.).
Electrophysiological recordings were performed using the two electrode voltage clamp method with the Dagan 8500 amplifier (Dagan Instruments, Minneapolis) as described (Dascal et al. (1986) Mol. Brain Res. 1:201–209). The oocytes were usually kept in the ND96 solution: 96 mM NaCl/2 mM KC1/1 mM MgCl2/1 mM CaCl2/5 mM Hepes, pH=7.5. Most measurements were done in the high K^+ solution (hK): 96 mM KCl/2 mM NaCl/1 mM MgCl2/1 mM CaCl2/5 mM Hepes, pH=7.5. Solutions containing intermediate concentrations of K^+ were made by substituting K^+ for Na^+. Solution exchange and drug application were done by superfusing the cell placed in a 0.5 ml chamber. GDP-β-S (trilithium salt; Sigma) was injected by pressure (Dascal et al. supra.). Stimulation, data acquisition, and analysis were performed using pCLAMP software (Axon Instruments, Foster City, Calif.).

[3] = target: Kir3.1 (Kir3.1/KGA), inward rectifier G-protein activated potassium channel polypeptide cloned from cardiac atrium (rat) (UniProt P63251); experiment: cell-based or functional assay
[4] = target: Kir3.2, isolated by PCR from mouse brain RNA (mouse) (UniProt P48542); experiment: cell-based or functional assay
Chain of Kir3.2, isolated by PCR from mouse brain RNA (mouse) (P48542 whole entry): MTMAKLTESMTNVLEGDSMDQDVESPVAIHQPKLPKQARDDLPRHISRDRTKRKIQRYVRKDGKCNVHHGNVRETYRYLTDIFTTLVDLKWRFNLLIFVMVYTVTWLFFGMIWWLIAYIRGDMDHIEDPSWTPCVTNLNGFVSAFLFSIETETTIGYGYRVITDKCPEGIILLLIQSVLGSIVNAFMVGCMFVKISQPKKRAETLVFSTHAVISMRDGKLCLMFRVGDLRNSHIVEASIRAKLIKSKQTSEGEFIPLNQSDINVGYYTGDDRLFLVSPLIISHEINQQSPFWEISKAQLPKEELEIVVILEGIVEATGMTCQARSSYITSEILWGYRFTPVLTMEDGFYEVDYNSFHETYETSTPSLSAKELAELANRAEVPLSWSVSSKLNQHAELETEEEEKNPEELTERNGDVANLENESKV

[5] = target: serotonin 5HT1A receptor (5HT1A-R); experiment: cell-based or functional assay
[6] = 400–800 pmole/oocyte injected, 4 cells
[7] = RNA-injected oocytes without Gi2α RNA, 500 ng/ml, 20–26 h

Procedure for native oocytes: Electrophysiological recordings were performed using the two electrode voltage clamp method with the Dagan 8500 amplifier (Dagan Instruments, Minneapolis) as described (Dascal et al. (1986) Mol. Brain Res. 1:201–209). […]

Compound: NCCc1c[nH]c2ccc(O)cc12 [5HT, serotonin]
EC50 [1]: ~0.015 µM
inward current induced by the transmitter in hK solution ([1]; RNA-injected oocytes of one frog, n=6): 1102±84 nA
saturation of the I5HT dose-response curve ([1]; hK solution, FIG. 1C): about 100 nM
I5HT, inward current evoked by 5HT ([1]; oocytes injected with Atrial + 5HT1A-R RNA, -80 mV, hK solution, 5HT 100 nM to 2 μM, mean±SEM (n)): 290 ± 43 (55) nA
effect of 5HT on current (native oocytes): no effect
change in membrane current in ND96 bath solution (Xenopus laevis oocytes; RNA-injected oocytes, 4 to 5 days after injection, 10 μM ACh or 1–2 μM 5HT): did not cause any significant change

Compound: CC(=O)OCC[N+](C)(C)C [ACh, acetylcholine]
inward currents induced by ACh (IK,ACh) (Kir3.1): −365±45 nA
inward currents induced by ACh (IK,ACh) (Kir3.1+2): −6.4±0.8 μA
inward currents induced by ACh (IK,ACh) (Kir3.2): −698±98 nA

Compound: [Ba+2] [Ba^2+]
block of I5HT ([1]; 300 μM, hK solution, FIG. 3B): almost completely blocks; also recorded: almost completely abolished
IC50 ([1]; hK solution, -80 mV, FIG. 3D, read-out: IC50 (half-inhibition concentration) for block of I5HT): ~15 µM
change in resting current or conductance in normal ND96 (Xenopus laevis oocytes; 5 μM-3 mM, native or RNA-injected oocytes, holding potential -80 mV): did not cause any significant changes
block of IhK ([2]; 300 μM, hK solution): about 20%
IC50 ([2]; hK solution, -80 mV, FIG. 3D, read-out: IC50 for IhK block): > 3000 µM

Compound: Nc1nc2c(ncn2[C@@H]2O[C@H](COP(=O)(O)OP(O)(O)=S)[C@@H](O)[C@H]2O)c(=O)[nH]1 [GDP-β-S]
I5HT after injection, % of control [1, 6]: 4±1 % of control
IhK after injection, % of control [2, 6]: 115±8 % of control

inward K+ current (IK) in high-K+ solution, Kir3.1 alone with Gβ1γ2 [3]: -104 nA
inward K+ current (IK), Kir3.1 alone (control of the Kir3.1+3 experiment) [3]: -481 nA
Gβγ-induced, inwardly rectifying currents in oocytes injected with Kir3.2 cRNA alone (1 ng per oocyte) [4]: -5.1 µA
inward K+ current (IK) in high-K+ solution, Kir3.2 alone with Gβ1γ2 [4]: -305 nA
Compound: G protein subunits Gβ1 and Gγ2 (Gβ1γ2)

PTX inhibition of I5HT in oocytes injected with atrial RNA plus cRNAs encoding 5HT1A-R and Gi2α [5]: 50%
Compound: Gi2α, PTX-sensitive α subunit of a G-protein

fold increase of IK of Kir3.1+2 over Kir3.1 alone (with Gβ1γ2) [3]: 40 fold
fold increase of IK of Kir3.1+2 over Kir3.2 alone (with Gβ1γ2) [3]: 14 fold
fold increase of the ACh-induced current of Kir3.1+2 over Kir3.1 alone [3]: 17 fold
fold increase of the ACh-induced current of Kir3.1+2 over Kir3.2 alone [3]: 9 fold
fold increase of the major open-time component of Kir3.1+2 against Kir3.2 alone [3]: 7 fold
inward K+ current (IK) in high-K+ solution, Kir3.1+2 coexpressed with Gβ1γ2 [3]: -4.3 µA
inward currents induced by ACh (IK,ACh), Kir3.1+2 coexpressed with m2R, 1 µM ACh [3]: -6.4 µA
major component of single-channel open-time duration, Kir3.1+2 [3]: 3.5 ms
time constant of the slower activation component at -80 mV, Kir3.1+2 coexpressed [3]: 213 ms
Compound: Kir3.2, isolated by PCR from mouse brain RNA (from UniProt P48542 1-425)

fold increase of IK of Kir3.1+3 over Kir3.1 alone [3]: 7 fold
inward K+ current (IK), Kir3.1 and Kir3.3 coexpressed (Kir3.1+3) [3]: -3.4 µA
Gβγ-induced, inwardly rectifying currents in oocytes coinjected with Kir3.2 and Kir3.3 cRNAs (0.5 ng each per oocyte) [4]: -129 nA
Compound: Kir3.3, isolated by PCR from mouse brain RNA (from UniProt P48543 1-393)

Compound: pertussis toxin [PTX]
effect of treatment on I5HT [1, 7]: not affected
inhibition of I5HT ([1]; oocytes injected with atrial RNA plus cRNAs encoding 5HT1A-R and Gi2α, P<0.01): about 50%
effect of treatment on IhK [2, 7]: not affected
effect on IhK ([2]; oocytes injected with atrial RNA plus cRNAs encoding 5HT1A-R and Gi2α): unaffected

From patent publication US7138248B2, “Method of inhibiting inward rectifier, G-protein activated, mammalian, potassium channels and uses thereof” (California Institute of Technology, priority 1993, dated 2006)
